Test results as given in patent publication US9393309B2, “Self-gelatinizable nucleic acid” (Kyoto University, priority 2011, dated 2016).

Experiments:
Format in all cases: physicochemical
[1] = Formation of hydrogel from nucleic acid units without ligase; details: for gel formation singly or on mixing: final DNA concentration 2 mM, NaCl 150 mM; for gel formation: without DNA ligase
Experimental: A NaCl solution was added to an ODN solution (polypodna) such that the final Na^+ concentration was 5 to 150 mM. The gel formation and the gel strength were measured by a gel strength analyzer (gel strength meter, Nakayamadenki Co., Ltd, Osaka).
A structure to be a hydrogel (a nucleic acid monomer and an estimated nucleic acid unit) in conditions at room temperature, at 5 mM to 150 mM sodium chloride concentration (150 mM is substantially physiological concentration), and not containing a DNA ligase was elucidated. […] For convenience, nucleic acid units estimated to be formed according to the number of nucleic acid monomers capable of constituting the nucleic acid unit were represented by xxxpodna (xxxpod-like structure forming nucleic acid, xxx is substituted by tri (3), tetra (4) and the like, according to the number of nucleic acid monomers capable of constituting the nucleic acid unit). In Table 2 described below, xxxpodna is an estimated nucleic acid unit, and each of xxx-Y-N is a nucleic acid monomer that can be a constituent element of the nucleic acid unit (xxxpodna) which is mentioned above thereof. When the descriptions of Ys are different from each other, different nucleic acid units can be formed. N denotes numbering of nucleic acid monomers constituting each of the estimated nucleic acid units.
Unlike (1-1) described above, gelation can be controlled by using a nucleic acid monomer including cohesive protruding ends which are not attached to themselves (that is, not palindrome sequence).

[2] = Percentage of remaining gels with the passage of time
Experimental: Gels were formed by adjusting the NaCl concentration at 150 mM in an aqueous solution containing Tetrapodna (12-14-14) (SEQ ID NOs.: 30, 31, 32 and 33) at a DNA concentration of 0.1 mM, 0.25 mM or 0.5 mM, and the percentage of the remaining gels was measured with the passage of time. The results are shown in a graph in the left upper side of FIG. 17.
Gels were formed in conditions at a certain DNA concentration (0.5 mM) and a certain NaCl concentration (150 mM), and the percentage of the remaining gels was measured with the passage of time by using Tetrapodna (respectively, SEQ ID NOs.: 2, 4, 5 and 6, SEQ ID NOs.: 18, 19, 20 and 21, SEQ ID NOs.: 22, 23, 24 and 25, SEQ ID NOs.: 26, 27, 28 and 29, as well as SEQ ID NOs.: 30, 31, 32 and 33) having various lengths of the cohesive protruding end (4, 6, 8, 10 or 12 bases). The results are shown in a graph in the left lower side of FIG. 17. […] When 12 hours had passed, the percentage of the remaining gels became about 50%.
Gels were formed by variously changing the NaCl concentrations (5 mM, 50 mM, 100 mM or 150 mM) of an aqueous solution containing Tetrapodna (12-14-14) (SEQ ID NOs.: 30, 31, 32 and 33) at a DNA concentration of 0.5 mM, and the percentage of the remaining gels was measured with the passage of time. The results are shown in a graph in the right upper side of FIG. 17. […] At a low salt concentration (5 mM), almost all the formed gels became in a sol state when about 6 hours had passed. When the salt concentration was increased to 50 mM, solation tendency was weakened, a change from a gel into a sol occurred moderately (about 40% when 12 hours had passed).
The percentage of the remaining gels was measured with the passage of time in the same manner as in (8-3) except that Tetrapodna (4-18-18) (SEQ ID NOs.: 2, 4, 5 and 6) was used instead of Tetrapodna (12-14-14) (SEQ ID NOs.: 30, 31, 32 and 33). The results are shown in a graph in the right lower side of FIG. 17. […] In (8-3), Tetrapodna (12-14-14) (the length of the cohesive protruding end is 12 bases) was used. In (8-4), Tetrapodna (4-18-18) (the length of the cohesive protruding end is 4 bases) was used.

[3] = Evaluation of gelation at various DNA concentrations and NaCl concentrations; set-up: key: ◯: the mark “∘” is given to cases in which gelation was observed; X: the mark “x” is given to cases of a solution state (sol-state)
Experimental: […] The gel formation and the gel strength were measured by a gel strength analyzer (gel strength meter, Nakayamadenki Co., Ltd, Osaka).
Specifically, by changing the DNA concentrations of an aqueous solution of Tripodona (4-18-18) (X=4) (SEQ ID NOs.: 1, 2 and 3), Tetrapodna (4-18-18) (X=4) (SEQ ID NOs.: 2, 4, 5 and 6), Hexapodna (4-18-18) (X=4) (SEQ ID NOs.: 2, 3, 4, 7, 9 and 10) and Tetrapodna (8-16-16) (X=8) (SEQ ID NOs.: 22, 23, 24 and 25) as shown in the lines of Table 4, and by changing the NaCl concentration as shown in the rows of Table 4, whether or not a gel is formed at various DNA concentrations and NaCl concentrations was evaluated. The results are shown such that the mark “∘” is given to cases in which gelation was observed, and the mark “x” is given to cases of a solution state (sol-state).

dsDNA (12-14): double strand DNA, SEQ ID NOs.: 42 and 43, 12-base ends complementary to Tetrapodna (A) (chain 1 GACTGACTCTGAACGTCAGCGTTA; chain 2 GACTGACTCTGATAACGCTGACGT; DNA, all phosphodiester, methylation of C not given here)
gel formation singly or on mixing [1]: did not form a gel singly

B1: Tetrapodna (12-14-14): four ODNs, SEQ ID NOs.: 30, 31, 32 and 33, 12-base palindrome cohesive protruding end (nucleic acid)
DNA 1: ACGTCATGACGTTGCACGACATCACGTTGACGCTCGTCGA
DNA 2: ACGTCATGACGTTCGACGAGCGTCAATCTCGCAACGTGCA
DNA 3: ACGTCATGACGTTGCACGTTGCGAGACAGACGCTTGACGA
DNA 4: ACGTCATGACGTTCGTCAAGCGTCTGCGTGATGTCGTGCA
modifications: DNA, all phosphodiester, methylation of C not given here
gel formation [1]: gels can be prepared | gel formation (percentage of gels) ([2]; DNA 0.1 mM, NaCl 150 mM): about 25% | percentage of the remaining gels with the passage of time ([2]; DNA 0.25 mM, NaCl 150 mM): the initial percentage of gels was increased, but the percentage of the remaining gels was decreased with the passage of time | time until almost all the formed gels became in a sol state ([2]; DNA 0.5 mM, NaCl 5 mM): about 6 hours | change from a gel into a sol ([2]; DNA 0.5 mM, NaCl 50 mM, 12 hours): about 40% | initial percentage of gels ([2]; DNA 0.5 mM, NaCl 100 mM): about 100% | percentage of the remaining gels with the passage of time ([2]; DNA 0.5 mM, NaCl 100 mM): decreased with the passage of time only slightly | initial percentage of gels ([2]; DNA 0.5 mM, NaCl 150 mM): about 100% | percentage of the remaining gels with the passage of time ([2]; DNA 0.5 mM, NaCl 150 mM): decreased with the passage of time only slightly

B2: Tetrapodna (B): SEQ ID NOs.: 38, 39, 40 and 41, 12-base end complementary to Tetrapodna (A) (nucleic acid)
DNA 1: GACTGACTCTGATGCACGACATCACGTTGACGCTCGTCGA
DNA 2: GACTGACTCTGATCGACGAGCGTCAATCTCGCAACGTGCA
DNA 3: GACTGACTCTGATGCACGTTGCGAGACAGACGCTTGACGA
DNA 4: GACTGACTCTGATCGTCAAGCGTCTGCGTGATGTCGTGCA
modifications: DNA, all phosphodiester, methylation of C not given here
gel formation singly or on mixing [1]: did not form a gel singly

B3: Tripodna(4-18-18): nucleic acid unit of three ODNs, SEQ ID NOs.: 1, 2 and 3, 4-base palindrome cohesive protruding end, CpG (nucleic acid)
DNA 1: ACGTTCGTCAACGTCTGTGCTCTCACGTTGACGCTGTCGA
DNA 2: ACGTTCGACAGCGTCAACGTGAAACGTGAAGCGTCTGCGA
DNA 3: ACGTTCGCAGACGCTTCACGTTGAGCACAGACGTTGACGA
modifications: unmodified DNA
gelation ([3]; Na+ 2 mM, DNA 1.2 mM): X | gelation ([3]; Na+ 2 mM, DNA 1.4 mM): ◯ | gelation ([3]; Na+ 10 mM, DNA 1.2 mM): ◯ | gelation ([3]; Na+ 20 mM, DNA 1.0 mM): X | gelation ([3]; Na+ 50 mM, DNA 0.7 mM): X | gelation ([3]; Na+ 50 mM, DNA 0.8 mM): X | gelation ([3]; Na+ 50 mM, DNA 0.9 mM): X | gelation ([3]; Na+ 50 mM, DNA 1.0 mM): ◯ | gelation ([3]; Na+ 100 mM, DNA 0.7 mM): ◯ | gelation ([3]; Na+ 100 mM, DNA 0.8 mM): ◯ | gelation ([3]; Na+ 100 mM, DNA 0.9 mM): ◯ | gelation ([3]; Na+ 150 mM, DNA 0.6 mM): X | gel formation [1]: gels can be prepared

B4: Pentapodna (4-18-18): five ODNs, SEQ ID NOs.: 2, 3, 4, 7 and 8, 4-base cohesive protruding end (nucleic acid)
DNA 1: ACGTTCGACAGCGTCAACGTGAAACGTGAAGCGTCTGCGA
DNA 2: ACGTTCGCAGACGCTTCACGTTGAGCACAGACGTTGACGA
DNA 3: ACGTTCGCTGACGTTGCAGACATCACGTTGACGCTGTCGA
DNA 4: ACGTTCGTCAACGTCTGTGCTCGCAGCGTCTTAACGTCGA
DNA 5: ACGTTCGACGTTAAGACGCTGCTGTCTGCAACGTCAGCGA
modifications: unmodified DNA
gel formation [1]: gels can be prepared

B5: Tetrapodna (A): SEQ ID NOs.: 34, 35, 36 and 37, 12-base non-palindrome cohesive protruding end (nucleic acid)
DNA 1: TCAGAGTCAGTCTGCACGACATCACGTTGACGCTCGTCGA
DNA 2: TCAGAGTCAGTCTCGACGAGCGTCAATCTCGCAACGTGCA
DNA 3: TCAGAGTCAGTCTGCACGTTGCGAGACAGACGCTTGACGA
DNA 4: TCAGAGTCAGTCTCGTCAAGCGTCTGCGTGATGTCGTGCA
modifications: DNA, all phosphodiester, methylation of C not given here
gel formation singly or on mixing [1]: did not form a gel singly

B6: Tetrapodna (10-15-15): four ODNs, SEQ ID NOs.: 26, 27, 28 and 29, 10-base cohesive protruding end (nucleic acid)
DNA 1: ACGTTAACGTTGCACGACATCAGCGTCTGACGCTCGTCGA
DNA 2: ACGTTAACGTTCGACGAGCGTCAGATCTCGCAACGCTGCA
DNA 3: ACGTTAACGTTGCAGCGTTGCGAGACAGACGCTTGACGCA
DNA 4: ACGTTAACGTTGCGTCAAGCGTCTGCGCTGATGTCGTGCA
modifications: DNA, all phosphodiester, methylation of C not given here
gel formation [1]: gels can be prepared | initial percentage of gels ([2]; DNA 0.5 mM, NaCl 150 mM): about 100% | percentage of the remaining gels with the passage of time ([2]; DNA 0.5 mM, NaCl 150 mM): decreased with the passage of time only slightly

B7: Tetrapodna (6-17-17): four ODNs, SEQ ID NOs.: 18, 19, 20 and 21, 6-base cohesive protruding end (nucleic acid)
DNA 1: AACGTTTACGCACGACATCAGCGTCTGGACGCTTCGTCGA
DNA 2: AACGTTTCGACGAAGCGTCCAGATCTCGTCAACGCTGCGA
DNA 3: AACGTTTCGCAGCGTTGACGAGACAGACGCTGTGACGCTA
DNA 4: AACGTTTAGCGTCACAGCGTCTGCGCTGATGTCGTGCGTA
modifications: unmodified DNA
gel formation [1]: gels can be prepared | initial percentage of gels ([2]; DNA 0.5 mM, NaCl 150 mM): about 100% | percentage of the remaining gels with the passage of time ([2]; DNA 0.5 mM, NaCl 150 mM): decreased with the passage of time only slightly
